Measurements reported in PMC4661877, “Enhancement of Chaperone Activity of Plant-Specific Thioredoxin through γ-Ray Mediated Conformational Change” (International Journal of Molecular Sciences, 2015).

Target: the molecule itself
Test: SEC; Superdex 200 10/300 GL, FPLC, 4 °C, 50 mM HEPES pH 8.0, 100 mM NaCl, 0.5 mL/min; size against standard proteins

B1: Arabidopsis thaliana tetratricopeptide domain-containing thioredoxin (AtTDX), non-irradiated (enzyme, UniProt Q8VWG7 1-380, looked up)
chain: MVDAIQVAELRRFVEQLKLNPSILHDPSLVFFKEYLRSLGAQVPKIEKTERDYEDKAETKPSFSPKHDDDDDDIMESDVELDNSDVVEPDNEPPQPMGDPTAEVTDENRDDAQSEKSKAMEAISDGRFDEAIEHLTKAVMLNPTSAILYATRASVFLKVKKPNAAIRDANVALQFNSDSAKGYKSRGMAKAMLGQWEEAAADLHVASKLDYDEEIGTMLKKVEPNAKRIEEHRRKYQRLRKEKELQRAERERRKQQEAQEREAQAALNDGEVISIHSTSELEAKTKAAKKASRLLILYFTATWCGPCRYMSPLYSNLATQHSRVVFLKVDIDKANDVAASWNISSVPTFCFIRDGKEVDKVVGADKGSLEQKIAQHSSSK
notes: AtTDX, Arabidopsis thaliana tetratricopeptide domain-containing thioredoxin; 380 amino acids, 42 kDa; three TPR domains at the amino terminus and a thioredoxin domain at the carboxyl terminus; Mixture of LMW (mainly tetrameric) and HMW forms; also called non-irradiated AtTDX; 0 kGy
  stoichiometry N: 4
